Consider 1 molecule from patent CN113912720A (BLOOD DISEASES HOSPITAL CHINESE ACADEMY OF MEDICAL SCIENCES …, dated 2022).

The test addresses T1, 人BCMA蛋白 (on 3T3-BCMA cells) (human, UniProt Q02223 1-54).
T1 construct: extracellular domain; also called 3T3-BCMA细胞表面BCMA蛋白; CD269
T1 sequence (looked up): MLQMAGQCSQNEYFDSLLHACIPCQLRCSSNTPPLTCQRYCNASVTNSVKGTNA
Nature of the test: Flow cytometry: PE-labelled 69G8 titrated from 400 nM to 0.025 nM on 3T3-BCMA cells; mean fluorescence fitted with GraphPad Prism 7.

B1: 抗人BCMA单克隆抗体69G8 (antibody, V domains shown)
VH: QVQLQQSGAEVVRPGTSVKVSCKASGYAFTNYLIEWVKQRPGQGPEWIGVITPGRGDTKYNAKFAGKATLTADKSSSTAYMQLSSLTFDDSAVYFCARGTTAWFPYWGQGTLVTVSA
VL: DIVLTQSPASLTVSLGQRATISCRASKSVSTSGYSYMHWYQQKPRQPPKLLIYLASNLESGVPARFSGSGSGTDFTLNIHPVEEEDAATYYCQHSRDLPYTFGGGTKLEIKR
notes: also called 69G8抗体; PE标记抗体69G8
Molecule B1 came in with a Kd of 13.8 nM.
